For one substance, HPRT expression in gastrocnemius of C57BL/6 mice, three days after a single i.v. dose (2 mg/kg of RNA), HPRT expression in heart of C57BL/6 mice, three days after a single i.v. dose (2 mg/kg of RNA) and decrease in HPRT expression in Hepa 1-6 cells after 72 hour incubation with 100 nM complex results are on record in US20240382513A1.

For the test, the target named is transferrin receptor (on Hepa 1-6 cells; in tissues of C57BL/6 wild-type mice) (mouse) (UniProt Q62351). The test can be described thus: cell-based or functional assay.
Chain of UniProt Q62351 (Q62351 whole entry): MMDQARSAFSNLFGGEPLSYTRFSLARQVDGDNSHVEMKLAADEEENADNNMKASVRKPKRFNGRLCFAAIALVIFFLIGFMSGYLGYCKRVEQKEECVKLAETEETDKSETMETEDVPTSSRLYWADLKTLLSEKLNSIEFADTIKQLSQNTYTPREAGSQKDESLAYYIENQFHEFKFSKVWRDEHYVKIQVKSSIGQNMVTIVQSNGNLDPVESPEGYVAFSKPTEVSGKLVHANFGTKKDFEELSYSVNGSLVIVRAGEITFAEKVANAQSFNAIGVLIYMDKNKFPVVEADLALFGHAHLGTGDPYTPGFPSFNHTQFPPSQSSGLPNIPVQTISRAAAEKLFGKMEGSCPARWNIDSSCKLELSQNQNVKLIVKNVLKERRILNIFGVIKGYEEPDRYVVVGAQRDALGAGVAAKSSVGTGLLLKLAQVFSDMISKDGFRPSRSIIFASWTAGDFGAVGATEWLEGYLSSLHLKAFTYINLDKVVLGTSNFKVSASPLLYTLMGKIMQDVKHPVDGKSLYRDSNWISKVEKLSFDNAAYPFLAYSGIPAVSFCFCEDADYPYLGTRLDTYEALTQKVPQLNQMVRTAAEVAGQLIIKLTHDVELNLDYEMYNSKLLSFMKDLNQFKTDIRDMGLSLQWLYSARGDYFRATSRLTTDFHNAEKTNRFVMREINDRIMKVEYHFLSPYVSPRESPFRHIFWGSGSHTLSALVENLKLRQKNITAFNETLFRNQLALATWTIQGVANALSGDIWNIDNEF

The substance “antiTfR-siHPRT complex: RI7 217 anti-TfR1 Fab (DTX-A-002) covalently linked via a non-cleavable GMBS linker to the HPRT siRNA (siHPRT)” yielded an HPRT expression in gastrocnemius of C57BL/6 mice, three days after a single i.v. dose (2 mg/kg of RNA) of 31%; an HPRT expression in heart of C57BL/6 mice, three days after a single i.v. dose (2 mg/kg of RNA) of 30%; a decrease in HPRT expression in Hepa 1-6 cells after 72 hour incubation with 100 nM complex of 50%.
